In the RNAGym collection of RNA variant scans (doi:10.1073/pnas.2313332121):
Fewer inactive variants are shown than the library holds.

B1: TPR 5TU (parent)
chain: GGAUCUUCUCGAUCUAACAAAAAAGACAAAUCUGCCACAAAGCUUGAGAGCAUCUUCGGAUGCAGAGGCGGCAGCCUUCGGUGGCGCGAUAGCGCCAACGUUCUCAACUAUGACACGCAAAACGCGUGCUCCGUUGAAUGGAGUUUAUCAUG

Variants of: B1
Assay: polymerase ribozyme fitness, log enrichment relative to wild type (log ratio); higher = more active; in vitro selection for triplet polymerase activity
In short: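 Each subunit of a heterodimeric triplet polymerase ribozyme was represented by a PCR-built, transcribed mutant library that underwent triplicate single-round in vitro selection with frozen incubation at −7 °C. Extended constructs were recovered by gel excision, streptavidin-bead capture and RT-PCR, and Illumina sequencing of input and output libraries kept genotypes with ≥10 input reads and ≥1 read per output. Fitness is the logarithm of genotype enrichment relative to wild-type enrichment, from inverse-variance-weighted replicate averages, with a logarithm base of 2.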

| Variant | polymerase ribozyme fitness (log ratio) |
| --- | --- |
| G80U G86U G100A | ≤ -4.2 |
| C79A U90A G133U G143C | ≤ -4.2 |
| G83U A91U A120U A138U | ≤ -4.2 |
| C85A G117U | -0.587 |
| G83C C87G C114U A120U A138G | ≤ -4.2 |
| G81A A97G A115G | -0.993 |
| G84A G94C | -1.72 |
| G83C A121G | -0.25 |
| U82G C95U U102G | -3.59 |
| G84A C87A | ≤ -4.2 |
| U82G G88C C93U C95G | ≤ -4.2 |
| G83A C93U A121U | -2.08 |
| G81A G92C C99U G124C G133U | ≤ -4.2 |
| G81C C93A | -2.57 |
| G81C C93G | -3.69 |
| G83A G136A | -0.0141 |
| G84A G152A | -2.93 |
| G84A G141A | -0.675 |
| G80C G81U | 0.0733 |
| U82C A89C C96U U101G A115C | -1.01 |
| G83U C103U C116A G117A U148A | ≤ -4.2 |
| C79U U102C | ≤ -4.2 |
| G81C G141A | -1.94 |
| G83C G86A C95A A120C | ≤ -4.2 |

| Variant | polymerase ribozyme fitness (log ratio) |
| --- | --- |
| C85A C103A C125A | -3.33 |
| G81A A120G U148C | -2.99 |
| G81C C87U G100C G117A G126C | ≤ -4.2 |
| G83A G141A | 0.227 |
| U82A C96A A110G A137G | -3.99 |
| G80C A113G U134A | ≤ -4.2 |
| G83A G117C | -0.0387 |
| G84U U102G A110G | ≤ -4.2 |
| C85U C87U A150G | -1.59 |
| C85A C105U G141C | -3.45 |
| G84U G117U C123A | -1.62 |
| C85U A106G | -0.585 |
| C85U A106C | -3.33 |
| G80A U82G | 0.0436 |
| C85G C103A | ≤ -4.2 |
| G83A A121G U145G U148G | ≤ -4.2 |
| C85G C116U U144G | -0.537 |
| G84A A91G A122C | -3.61 |
| C85A C95U | -1.98 |
| C85U A147U | -0.285 |
| C85G A115U | -3.56 |
| C85G G112C A138U C149A | ≤ -4.2 |
| C85G C103A G140U | ≤ -4.2 |
| G84A A142U | -0.702 |

| Variant | polymerase ribozyme fitness (log ratio) |
| --- | --- |
| U82G A107U | -2.6 |
| G81U C96U A107U U145C | -3.1 |
| C79G A122U | -3.58 |
| G84U U134A U144C A150U | ≤ -4.2 |
| G83C G92C G100A U104G U146A | ≤ -4.2 |
| G84A C116A | 0.83 |
| G80U A119C C123A | -1.18 |
| C79U C87A C96U A98C G141C | ≤ -4.2 |
| C85A U130G | -3.53 |
| G84U G141C U144A | ≤ -4.2 |
| C85U A97U | -2.44 |
| G80A C99G G124A | -0.389 |
| U82G A106U C118U | -0.65 |
| G83C U101A | -1.07 |
| U82A C95U | -0.587 |
| G81A C87U U146G | -3.41 |
| C85A C114U | -3.28 |
| C85A C96A G128C | -4.03 |
| C85A U135G | ≤ -4.2 |
| G81C G117C G143U | -4.1 |
| G83U C116U A122C | -2.43 |
| C79U G94C | -3.64 |
| G83C A89C G126A | -0.834 |
| G81C C93G A113C C116U G117A C129A | ≤ -4.2 |

| Variant | polymerase ribozyme fitness (log ratio) |
| --- | --- |
| U82G A98G | 0.302 |
| C85U A121C G141U | 2.08 |
| G84A U101G | -0.429 |
| C85G A122G C123A | -2.57 |
| C85G C123U G141A | -0.441 |
| G81U C85G | -1.76 |
| C85G C87U U145G | -3.08 |
| G83A A89G C116U | -1.69 |
| G83U G94A U127C | -3.92 |
| C79G C85U | -4.04 |
| U82G A89C A98G A142C | -1.56 |
| C85G U151C | -4.2 |
| G84A A89G A98G C114U | -2.55 |
| C85A C96A U101C G143A | ≤ -4.2 |
| G80A U82G C123A G152U | -4.06 |
| G83A C87U A106C C125G G152A | -3.25 |
| G83C U104G C118A | -3.08 |
| C85U A122U | -0.795 |
| C79G C87G C114G | ≤ -4.2 |
| G81C C85A A142G | -1.69 |
| G84A C116G A121U | 0.52 |
| G81C C85U A97G U109G | -0.959 |
| U82A C85G | -3.05 |
| G83A G88C A91G C95U A137G | ≤ -4.2 |

| Variant | polymerase ribozyme fitness (log ratio) |
| --- | --- |
| C79A G141C | -3.95 |
| G81U A98U C116A | 0.542 |
| G83U C95U C116U | -2.67 |
| C79U C96U | -3.43 |
| G83A G140C | -3.99 |
| G83A A115G G136A U144C | -3.84 |
| G81C G112A A137U U148A | ≤ -4.2 |
| C79U G83A A107G A110G U144G | ≤ -4.2 |
| C79U G100A A115C | -1.13 |
| G84C C93U | -4.07 |
| C85G G141U | -0.649 |
| G84A G94A C125A | -1.7 |
| C85A C116U | -1.08 |
| G84A G117A C129A | -2.45 |
| G83A C96U | -0.419 |
| U82C C93G | -3.99 |
| G83C A97U C103G U139C | ≤ -4.2 |
| G80A C93G A97G A115C | -3.64 |
| G80A C85G C116G | -2.05 |
| G80U G86U U111C | ≤ -4.2 |
| G83A C118U G126A | -2.89 |
| G83A C93U A107G | ≤ -4.2 |
| C85U A89U | -0.431 |
| U82G C105U | 1.06 |

| Variant | polymerase ribozyme fitness (log ratio) |
| --- | --- |
| C85G U102A G133U A137U G141C | -3.8 |
| C85G C99U G140U | ≤ -4.2 |
| G80A C87U | -0.519 |
| G84A U102C C105A A107G | ≤ -4.2 |
| G80A G92U A97G | -0.375 |
| G80C G128C | -3.87 |
| U82G C93U G141A | -0.284 |
| C85A G133C U134G U145G | ≤ -4.2 |
| G83A C116U | -0.551 |
| G83U C118A | -1.04 |
| U82A A107C | -3.72 |
| U82A G86C | -2.69 |
| C85G C87U | -3.28 |
| G81A C93A | -2.37 |
| C85A G86U A110C C131A | ≤ -4.2 |
| G84A A115U U134G | -4.01 |
| C85A C87G G88C A97G U130G G141C | ≤ -4.2 |
| G80A G94C C125A G143A | ≤ -4.2 |
| G84C U102A A147U | -3.01 |
| G81A G84A | -0.338 |
| G81C A89C A98U A107U U144C | ≤ -4.2 |
| C85G A98U G124U A147C | -2.53 |
| U82G A142C | -0.83 |
| G84A C87G A110G | ≤ -4.2 |

| Variant | polymerase ribozyme fitness (log ratio) |
| --- | --- |
| G83U C93G A121U | ≤ -4.2 |
| G84A U127A | -3.74 |
| U82G G92C A106G C116U U135C A150G | ≤ -4.2 |
| G81A C118G | -1.67 |
| U82C C131G | -2.45 |
| G84U A150G | -2.7 |
| U82C A89U C96G G100A A106U C114U A137C | ≤ -4.2 |
| G80C A115U | ≤ -4.2 |
| U82A C108U | -2.39 |
| C85A C96U | -2.63 |
| C85A C96G | -2.42 |
| G81A C95A C103A | -2.93 |
| U82A G83A C99U G117A U144A | -2.53 |
| G84U G141C | -2.49 |
| G84U A91G | -2.81 |
| G80A C105U | 0.692 |
| C85A G143A | -1.99 |
| C79G C85A C114U | ≤ -4.2 |
| G83A G92U C96A A147C | -3.05 |
| G83C C95U | -1.81 |
| G83A C118G | -0.683 |
| G83U A97U C105U G117U G141U | ≤ -4.2 |
| G84A U102G C125G | -3.78 |
